Columns and labels:
Test in all cases: SEC
SEC = target: the molecule itself
[1] = target: T1, ACAD9 (non-tagged wild type) (human, UniProt Q9H845 38-621)
T1 sequence: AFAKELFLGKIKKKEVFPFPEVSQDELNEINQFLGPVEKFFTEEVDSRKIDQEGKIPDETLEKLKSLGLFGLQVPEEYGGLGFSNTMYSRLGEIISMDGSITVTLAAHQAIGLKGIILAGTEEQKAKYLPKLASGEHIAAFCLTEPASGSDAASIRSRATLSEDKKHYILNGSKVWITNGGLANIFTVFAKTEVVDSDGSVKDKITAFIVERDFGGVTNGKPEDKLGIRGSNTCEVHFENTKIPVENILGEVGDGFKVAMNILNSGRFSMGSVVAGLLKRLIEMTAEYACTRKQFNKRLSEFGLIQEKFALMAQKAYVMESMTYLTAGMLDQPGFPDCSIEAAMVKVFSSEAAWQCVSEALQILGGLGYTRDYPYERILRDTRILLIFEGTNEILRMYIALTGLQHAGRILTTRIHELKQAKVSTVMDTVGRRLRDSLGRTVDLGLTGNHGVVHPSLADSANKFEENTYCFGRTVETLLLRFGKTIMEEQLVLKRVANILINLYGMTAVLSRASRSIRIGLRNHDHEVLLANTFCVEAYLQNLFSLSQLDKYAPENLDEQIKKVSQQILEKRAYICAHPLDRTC

ACAD9-His6 R532W = target: T2, ACAD9-His6 R532W (human, UniProt Q9H845 38-621, R532W)
T2 sequence: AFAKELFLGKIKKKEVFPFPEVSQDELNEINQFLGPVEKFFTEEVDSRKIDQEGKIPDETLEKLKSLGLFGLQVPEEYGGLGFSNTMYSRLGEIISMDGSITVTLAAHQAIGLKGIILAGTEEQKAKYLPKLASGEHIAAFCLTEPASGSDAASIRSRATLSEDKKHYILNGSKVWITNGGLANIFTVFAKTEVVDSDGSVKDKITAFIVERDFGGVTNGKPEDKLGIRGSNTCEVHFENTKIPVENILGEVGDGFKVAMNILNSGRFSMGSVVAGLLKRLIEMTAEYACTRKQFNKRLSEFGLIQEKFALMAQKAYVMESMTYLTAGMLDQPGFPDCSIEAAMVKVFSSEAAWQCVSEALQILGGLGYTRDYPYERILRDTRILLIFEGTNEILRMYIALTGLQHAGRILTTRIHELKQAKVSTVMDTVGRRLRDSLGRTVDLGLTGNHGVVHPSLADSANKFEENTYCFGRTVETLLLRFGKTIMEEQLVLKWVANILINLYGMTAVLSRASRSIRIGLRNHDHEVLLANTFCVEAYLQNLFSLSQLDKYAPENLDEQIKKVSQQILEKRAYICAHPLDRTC

ACAD9-His6 E426Q = target: T3, ACAD9-His6 E426Q (human, UniProt Q9H845 38-621, E426Q)
T3 sequence: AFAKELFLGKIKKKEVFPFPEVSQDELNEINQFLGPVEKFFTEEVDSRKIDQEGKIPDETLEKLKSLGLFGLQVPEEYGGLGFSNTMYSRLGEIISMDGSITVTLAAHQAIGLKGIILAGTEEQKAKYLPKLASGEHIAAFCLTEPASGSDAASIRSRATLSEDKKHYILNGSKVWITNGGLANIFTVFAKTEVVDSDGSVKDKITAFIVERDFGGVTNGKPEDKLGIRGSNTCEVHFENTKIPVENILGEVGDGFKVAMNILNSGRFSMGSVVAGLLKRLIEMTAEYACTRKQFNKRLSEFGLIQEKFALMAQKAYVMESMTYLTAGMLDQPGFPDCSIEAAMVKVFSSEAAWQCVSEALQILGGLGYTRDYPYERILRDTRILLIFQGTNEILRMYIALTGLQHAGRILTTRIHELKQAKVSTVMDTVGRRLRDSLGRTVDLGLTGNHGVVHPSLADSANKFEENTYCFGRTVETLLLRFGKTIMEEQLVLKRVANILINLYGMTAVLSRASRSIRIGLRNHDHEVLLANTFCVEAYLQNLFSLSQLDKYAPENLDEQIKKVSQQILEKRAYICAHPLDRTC

B1: His6-ECSIT (mature human mitochondrial ECSIT with N-terminal His tag) (natural protein)
chain: SSEQSLVPSPPEPRQRPTKALVPFEDLFGQAPGGERDKASFLQTVQKFAEHSVRKRGHIDFIYLALRKMREYGVERDLAVYNQLLNIFPKEVFRPRNIIQRIFVHYPRQQECGIAVLEQMENHGVMPNKETEFLLIQIFGRKSYPMLKLVRLKLWFPRFMNVNPFPVPRDLPQDPVELAMFGLRHMEPDLSARVTIYQVPLPKDSTGAADPPQPHIVGIQSPDQQAALARHNPARPVFVEGPFSLWLRNKCVYYHILRADLLPPEEREVEETPEEWNLYYPMQLDLEYVRSGWDNYEFDINEVEEGPVFAMCMAGAHDQATMAKWIQGLQETNPTLAQIPVVFRLAGSTRELQTSSAGLEEPPLPEDHQEEDDNLQRQQQGQS
What does the source list for B1?
stoichiometry N (SEC): 2; stoichiometry N [1]: 1 monomer:monomer; binding result (ACAD9-His6 R532W): binds; binding result (ACAD9-His6 E426Q): binds
